Consider 1 substance from paper PMC7183766.

In this assay the target is SpirNT(A*)-biotin (on streptavidin beads) (Drosophila melanogaster) (UniProt Q9U1K1). The assay can be described thus: TIRF microscopy of actin filaments on protein-coated beads.
Sequence of SpirNT(A*)-biotin (on streptavidin beads) (Drosophila melanogaster) (Q9U1K1 1-490): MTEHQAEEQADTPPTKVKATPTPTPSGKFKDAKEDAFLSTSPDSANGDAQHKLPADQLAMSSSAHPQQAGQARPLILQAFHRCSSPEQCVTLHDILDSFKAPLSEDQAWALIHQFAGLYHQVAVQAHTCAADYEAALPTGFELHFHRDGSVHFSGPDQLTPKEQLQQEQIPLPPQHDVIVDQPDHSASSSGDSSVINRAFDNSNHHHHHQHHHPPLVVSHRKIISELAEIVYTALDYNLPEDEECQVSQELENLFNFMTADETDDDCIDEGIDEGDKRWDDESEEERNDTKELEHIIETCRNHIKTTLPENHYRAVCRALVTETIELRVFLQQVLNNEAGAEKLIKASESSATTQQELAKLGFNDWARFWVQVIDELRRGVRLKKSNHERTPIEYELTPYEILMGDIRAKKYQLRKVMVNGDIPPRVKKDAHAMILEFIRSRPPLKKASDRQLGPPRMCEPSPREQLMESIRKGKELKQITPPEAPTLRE

On to “actin filaments (Acanthamoeba castellani actin) (natural protein)”, for which the koff – broadly, a measure of how fast the partners let go of each other – was 0.011 s⁻¹.
